This is an account of results in PMC5638942.

What is called Ki is the equilibrium dissociation constant of an inhibitor or competing ligand from its target.

One test has as its target PTHR1 (Homo sapiens) (UniProt Q03431). In words: radioligand competition. The settings on record: cited from earlier work. (In general: Displacement assays read how much labelled ligand stays bound in the presence of the test substance.)
The target of test [1] is PTH1 receptor (PTHR1), recombinant, on transfected HEK 293a cells (UniProt Q03431).

Sequence of PTH (P01270 32-115): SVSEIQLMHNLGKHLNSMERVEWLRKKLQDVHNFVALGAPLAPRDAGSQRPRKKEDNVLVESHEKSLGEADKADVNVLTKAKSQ

With PTH1-34 1-34 (from UniProt P01270), in the test with PTHR1 (Homo sapiens), the Ki was 4 nM.
Turning to PTH (from UniProt P01270), the Ki with PTHR1 (Homo sapiens) was 2 nM.
On to “PTH-HRP (prepro-PTH(1-84) fused to the N-terminus of horseradish peroxidase, N175S mutant) (from UniProt P01270 32-115) (ligand)”, for which, in test [1], the potency in cyclic AMP generation (10 min) in HEK 293a cells expressing PTHR1, against PTH(1-34) came out at 5 fold.
